Test results: the supplement of paper PMC10724198
± gives the standard deviation of the averaged measurements.

System: Saccharomyces cerevisiae
Assay: protein stability index of tFT-peptide fusion (C-terminal peptide) (PSI (0-1 scale)); higher = more stable (slower turnover)
Settings: temperature: 30 C
Protocol: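 MPS profiling in S. cerevisiae of the yeast C-terminome library: the last 12 aa of each annotated ORF are fused to the C-terminus of a sfGFP-mCherry timer, after a GGGS linker. Cells are FACS-sorted into 8 mCherry/sfGFP bins and deep-sequenced. PSI runs from 0 (unstable) to 1 (stable); wild type and das1Δ backgrounds, two technical replicates each.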

[1] = genetic background: das1 deletion

AAANILFSDHAD [RAD23 C-terminal 12 aa] was tested, and the protein stability index [1] was 0.739 ± 0.032 and the protein stability index (genetic background: wild type) was 0.733 ± 0.032.
Work on AAGVGSVHGINR [COY1 C-terminal 12 aa] yielded a protein stability index [1] of 0.7 ± 0.03 and a protein stability index (genetic background: wild type) of 0.6645 ± 0.0066.
For AAISFKEAPRSD [ANB1 C-terminal 12 aa], the protein stability index [1] was 0.723 ± 0.037 and the protein stability index (genetic background: wild type) was 0.694 ± 0.036.
AARPCLEGSVAP [YOR050C C-terminal 12 aa] was tested, and the protein stability index [1] was 0.686 ± 0.01 and the protein stability index (genetic background: wild type) was 0.6795 ± 0.0067.
ADETVDFYVYDE [SWD2 C-terminal 12 aa] gave a protein stability index [1] of 0.744 ± 0.027 and a protein stability index (genetic background: wild type) of 0.698 ± 0.06.
AEFLGSFDELVL [EEB1 C-terminal 12 aa] was tested, and the protein stability index [1] was 0.72333 ± 5e-06 and the protein stability index (genetic background: wild type) was 0.719 ± 0.018.
Work on AEIISVRQVDQS [GIT1 C-terminal 12 aa] yielded a protein stability index [1] of 0.673 ± 0.017 and a protein stability index (genetic background: wild type) of 0.705 ± 0.051.
Work on AESDDKSDNYGA [PRP45 C-terminal 12 aa] yielded a protein stability index [1] of 0.689 ± 0.032 and a protein stability index (genetic background: wild type) of 0.717 ± 0.036.
For AETLLSQRSRDR [DNF2 C-terminal 12 aa], the protein stability index [1] was 0.721 ± 0.028 and the protein stability index (genetic background: wild type) was 0.692 ± 0.048.
Sequence AGFGCLDSIILY [GSH2 C-terminal 12 aa] has a protein stability index [1] of 0.7068 ± 0.0036 and a protein stability index (genetic background: wild type) of 0.732 ± 0.038.
AHRENIAFPPQF [YHR033W C-terminal 12 aa] gave a protein stability index [1] of 0.739 ± 0.0092 and a protein stability index (genetic background: wild type) of 0.744 ± 0.067.
AIDTLLKMSSSD [SRL3 C-terminal 12 aa] showed a protein stability index [1] of 0.703 ± 0.03 and a protein stability index (genetic background: wild type) of 0.674 ± 0.051.
In the case of AIFLFLVGLFMK [UBC6 C-terminal 12 aa], the protein stability index [1] is reported as 0.289 ± 0.011 and the protein stability index (genetic background: wild type) is reported as 0.297 ± 0.017.
AKAGSTPKFRTE [YNL050C C-terminal 12 aa] was tested, and the protein stability index [1] was 0.6897 ± 0.0035 and the protein stability index (genetic background: wild type) was 0.6555 ± 0.0053.
AKDFLEKRGISK [PAM18 C-terminal 12 aa] was tested, and the protein stability index [1] was 0.711 ± 0.0047 and the protein stability index (genetic background: wild type) was 0.705 ± 0.023.
With AKFDGHAKTCHI [YBR051W C-terminal 12 aa] the protein stability index [1] was 0.717 ± 0.021 and the protein stability index (genetic background: wild type) was 0.70733 ± 5e-06.
Sequence AKKTNKLALTHV [SEC26 C-terminal 12 aa] has a protein stability index [1] of 0.7167 ± 0.0064 and a protein stability index (genetic background: wild type) of 0.718 ± 0.038.
“ALAFSKIPSVFL [YMR153C-A C-terminal 12 aa]” gave a protein stability index [1] of 0.722 ± 0.035 and a protein stability index (genetic background: wild type) of 0.687 ± 0.0091.
Work on ALDKYLIEIHHW [NPR3 C-terminal 12 aa] yielded a protein stability index [1] of 0.718 ± 0.041 and a protein stability index (genetic background: wild type) of 0.728 ± 0.013.
In the case of ALGRKTSNGGRI [MKS1 C-terminal 12 aa], the protein stability index [1] is reported as 0.7161 ± 0.004 and the protein stability index (genetic background: wild type) is reported as 0.724 ± 0.049.
AMSARKLSAARK [PCH2 C-terminal 12 aa] was tested, and the protein stability index [1] was 0.677 ± 0.015 and the protein stability index (genetic background: wild type) was 0.666 ± 0.025.
For ANLVYMKADVFC [HTD2 C-terminal 12 aa], the protein stability index [1] was 0.581 ± 0.012 and the protein stability index (genetic background: wild type) was 0.61 ± 0.066.
ANTDKNNNPPGN [SNG1 C-terminal 12 aa] gave a protein stability index [1] of 0.698 ± 0.016 and a protein stability index (genetic background: wild type) of 0.751 ± 0.07.
Sequence APHVLNDLLLKF [PGA1 C-terminal 12 aa] has a protein stability index [1] of 0.7108 ± 0.0037 and a protein stability index (genetic background: wild type) of 0.666 ± 0.017.
APRKEILACSDL [YOR392W C-terminal 12 aa] showed a protein stability index [1] of 0.718 ± 0.029 and a protein stability index (genetic background: wild type) of 0.665 ± 0.04.
AQAEVIRGLQSL [CAP2 C-terminal 12 aa] showed a protein stability index [1] of 0.682 ± 0.023 and a protein stability index (genetic background: wild type) of 0.672 ± 0.03.
Work on AQFKEYLYQNDF [HAM1 C-terminal 12 aa] yielded a protein stability index [1] of 0.704 ± 0.01 and a protein stability index (genetic background: wild type) of 0.697 ± 0.022.
For AQGEKDAAATAN [TOM22 C-terminal 12 aa], the protein stability index [1] was 0.677 ± 0.019 and the protein stability index (genetic background: wild type) was 0.6591 ± 0.0032.
ARKFWTEDNNNL [STE2 C-terminal 12 aa] gave a protein stability index [1] of 0.72 ± 0.023 and a protein stability index (genetic background: wild type) of 0.691 ± 0.039.
Sequence ARLVSNEPILLD [CWC23 C-terminal 12 aa] has a protein stability index [1] of 0.725 ± 0.026 and a protein stability index (genetic background: wild type) of 0.704 ± 0.053.
With ARTALKRLIDDQ [MSA1 C-terminal 12 aa] the protein stability index [1] was 0.692 ± 0.023 and the protein stability index (genetic background: wild type) was 0.698 ± 0.025.
In the case of ARTKRLVQFEAR [RPC10 C-terminal 12 aa], the protein stability index [1] is reported as 0.6826 ± 0.0044 and the protein stability index (genetic background: wild type) is reported as 0.7169 ± 0.007.
ASVRIFLYPSNI [RPL33A C-terminal 12 aa] was tested, and the protein stability index [1] was 0.7 ± 0.013 and the protein stability index (genetic background: wild type) was 0.697 ± 0.017.
ATAKEWTKKYAV [UBC5 C-terminal 12 aa] gave a protein stability index [1] of 0.7 ± 0.018 and a protein stability index (genetic background: wild type) of 0.729 ± 0.045.
Sequence ATRKALETARSA [MRPL13 C-terminal 12 aa] has a protein stability index [1] of 0.718 ± 0.0076 and a protein stability index (genetic background: wild type) of 0.728 ± 0.036.
ATSITSLGVKRA [AUR1 C-terminal 12 aa] gave a protein stability index [1] of 0.702 ± 0.01 and a protein stability index (genetic background: wild type) of 0.688 ± 0.026.
AVSVPRISSPMH [ICS3 C-terminal 12 aa] gave a protein stability index [1] of 0.7029 ± 0.0038 and a protein stability index (genetic background: wild type) of 0.73 ± 0.028.
With AWDIKQTLDSLA [CHO2 C-terminal 12 aa] the protein stability index [1] was 0.709 ± 0.023 and the protein stability index (genetic background: wild type) was 0.697 ± 0.038.
AYTEVKAVRIKL [ALD6 C-terminal 12 aa] was tested, and the protein stability index [1] was 0.6745 ± 0.0043 and the protein stability index (genetic background: wild type) was 0.69 ± 0.02.
Sequence CGVSWKSGVVKL [PXP2 C-terminal 12 aa] has a protein stability index [1] of 0.7093 ± 0.0022 and a protein stability index (genetic background: wild type) of 0.716 ± 0.031.
CLFGMAWLSTIL [YIP4 C-terminal 12 aa] showed a protein stability index [1] of 0.661 ± 0.015 and a protein stability index (genetic background: wild type) of 0.623 ± 0.0079.
For CLILSCSWWILN [YJR020W C-terminal 12 aa], the protein stability index [1] was 0.292 ± 0.0085 and the protein stability index (genetic background: wild type) was 0.1518 ± 0.00025.
Sequence CLSDIAKVLRNQ [PBP4 C-terminal 12 aa] has a protein stability index [1] of 0.661 ± 0.0092 and a protein stability index (genetic background: wild type) of 0.577 ± 0.015.
CPLCRSEIPFRR [RKR1 C-terminal 12 aa] was tested, and the protein stability index [1] was 0.75 ± 0.028 and the protein stability index (genetic background: wild type) was 0.724 ± 0.039.
For CRESNLKLIVSG [ARR2 C-terminal 12 aa], the protein stability index [1] was 0.6753 ± 0.002 and the protein stability index (genetic background: wild type) was 0.712 ± 0.016.
For CSGMKPISELQQ [RSM28 C-terminal 12 aa], the protein stability index [1] was 0.695 ± 0.015 and the protein stability index (genetic background: wild type) was 0.682 ± 0.017.
For CSPVLFSLLNIA [LCB3 C-terminal 12 aa], the protein stability index [1] was 0.699 ± 0.012 and the protein stability index (genetic background: wild type) was 0.674 ± 0.087.
DAKFMMQASCSS [FMP40 C-terminal 12 aa] showed a protein stability index [1] of 0.6897 ± 0.0051 and a protein stability index (genetic background: wild type) of 0.682 ± 0.035.
DASVEQNILAVL [RQT4 C-terminal 12 aa] gave a protein stability index [1] of 0.70427 ± 0.00032 and a protein stability index (genetic background: wild type) of 0.6904 ± 0.0037.
DAVAEEVKKILA [LEU2 C-terminal 12 aa] showed a protein stability index [1] of 0.689 ± 0.018 and a protein stability index (genetic background: wild type) of 0.68 ± 0.0084.
Work on DCLEGMLELEKL [DSS1 C-terminal 12 aa] yielded a protein stability index [1] of 0.698 ± 0.025 and a protein stability index (genetic background: wild type) of 0.677 ± 0.041.
With DDDNEDVEMSDA [NOC2 C-terminal 12 aa] the protein stability index [1] was 0.66818 ± 0.00066 and the protein stability index (genetic background: wild type) was 0.693 ± 0.057.
DDEDEEDDDFKE [CHZ1 C-terminal 12 aa] showed a protein stability index [1] of 0.725 ± 0.021 and a protein stability index (genetic background: wild type) of 0.671 ± 0.017.
For DDYAQYLDQDSD [MAK21 C-terminal 12 aa], the protein stability index [1] was 0.7147 ± 0.004 and the protein stability index (genetic background: wild type) was 0.671 ± 0.011.
DEDEDDSTTKEP [GLC8 C-terminal 12 aa] was tested, and the protein stability index [1] was 0.679 ± 0.011 and the protein stability index (genetic background: wild type) was 0.7 ± 0.026.
Work on DEDLWEEQEVCP [YGR017W C-terminal 12 aa] yielded a protein stability index [1] of 0.702 ± 0.0037 and a protein stability index (genetic background: wild type) of 0.709 ± 0.011.
